The source of these data is US20200024330A1.

Common to all, as to test: cell-based or functional assay
In experiment [1] the target is HIV-1 Env of pseudovirus PVO.4 (Acute), clade B (HIV-1).
Experiment [2] addresses HIV-1 IAVI-C22 envelope protein (Env) on pseudovirus (HIV-1).
Experiment [3] addresses HIV-1 MGRM-F1-014 Env (pseudovirus) (HIV-1).
Experiment [4] deals with HIV-1 Env of isolate MGRM-G-024 (subtype G) (HIV-1).
In experiment [5] the target is HIV-1 MGRM-C-028 envelope glycoprotein (Env) on pseudovirus (HIV-1).
The target in experiment [6] is HIV-1 MGRM-C-010 Env (HIV-1).
Experiment [7] addresses HIV-1 Env of isolate 92UG046 (clade D) (HIV-1).
Experiment [8] addresses HIV-1 IAVI-C18 envelope protein (Env) on pseudovirus (HIV-1).
Experiment [9] addresses HIV-1 Env of pseudovirus 6535.3 (Acute), clade B (HIV-1).
Experiment [10] deals with HIV-1 MGRM-A-013 envelope glycoprotein (Env) (HIV-1).
For experiment [11], the target named is HIV-1 MGRM-A-007 envelope glycoprotein (Env) (HIV-1).
Experiment [12] addresses HIV-1 Env of isolate MGRM-G-011 (clade G pseudovirus) (HIV-1).
For experiment [13], the target named is HIV-1 Env of isolate 92RW008 (HIV-1).
Experiment [14] concerns the target HIV-1 92RW024 envelope glycoprotein (Env) on pseudovirus (HIV-1).
Experiment [15] deals with HIV-1 Env of pseudovirus NL43, clade B (HIV-1).
In experiment [16] the target is HIV-1 MGRM-C-026 envelope glycoprotein (Env) on pseudovirus (HIV-1).
The target of experiment [17] is HIV-1 98IN022 envelope glycoprotein (Env) on pseudovirus (HIV-1).
Experiment [18] concerns the target HIV-1 Env of isolate MGRM-D-016 (HIV-1).
Experiment [19] has as its target HIV-1 Env of isolate MGRM-F1-004 (subtype F) (HIV-1).
For experiment [20], the target named is HIV-1 APV_13 Env (pseudovirus) (HIV-1).
Experiment [21] has as its target HIV-1 Env of isolate MGRM-C-019 (pseudovirus) (HIV-1 isolate MGRM-C-019, subtype C).
In experiment [22] the target is HIV-1 MGRM-Chronic-B-024 Env (pseudovirus) (HIV-1).
Experiment [23] concerns the target HIV-1 CAAN.A2 Env (pseudovirus) (HIV-1).
For experiment [24], the target named is HIV-1 MGRM-Chronic-B-017 Env (pseudovirus) (HIV-1).
The target in experiment [25] is HIV-1 Env of isolate MGRM-C-004 (pseudovirus) (HIV-1 isolate MGRM-C-004, subtype C).
The target of experiment [26] is HIV-1 Env of isolate 98CN006 (subtype CRF08 BC) (HIV-1).
The target in experiment [27] is HIV-1 93TH305 Env (pseudovirus) (HIV-1).
Experiment [28] has as its target HIV-1 Env of isolate MGRM-F1-014 (HIV-1).
For experiment [29], the target named is HIV-1 JR-CSF Env P470A (HIV-1 (isolate JR-CSF)) (UniProt P20871).
Experiment [30] deals with HIV-1 JR-CSF Env N188A (HIV-1 (isolate JR-CSF)) (UniProt P20871).
Experiment [31] deals with HIV-1 JR-CSF Env F468A (HIV-1 (isolate JR-CSF)) (UniProt P20871).
The target in experiment [32] is HIV-1 Env of isolate 92WR026 (HIV-1).
The target of experiment [33] is HIV-1 Env of isolate CAAN.A2 (HIV-1).
The target of experiment [34] is HIV-1 Env of isolate 98IN022 (HIV-1).
The target in experiment [35] is HIV-1 Env of isolate SC422661.8 (HIV-1).

Chain of PGT-143 (4980_N08) (antibody) (VH): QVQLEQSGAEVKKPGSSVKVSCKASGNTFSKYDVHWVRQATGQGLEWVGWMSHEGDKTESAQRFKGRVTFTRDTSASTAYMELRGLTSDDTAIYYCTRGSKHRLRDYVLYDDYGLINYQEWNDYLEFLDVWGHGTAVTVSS
Chain of PGT-143 (4980_N08) (antibody) (VL): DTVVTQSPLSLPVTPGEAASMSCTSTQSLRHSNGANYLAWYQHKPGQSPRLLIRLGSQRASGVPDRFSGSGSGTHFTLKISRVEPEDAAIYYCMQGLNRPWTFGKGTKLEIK
Chain of PGT-144 (4970_K22) (antibody) (VH): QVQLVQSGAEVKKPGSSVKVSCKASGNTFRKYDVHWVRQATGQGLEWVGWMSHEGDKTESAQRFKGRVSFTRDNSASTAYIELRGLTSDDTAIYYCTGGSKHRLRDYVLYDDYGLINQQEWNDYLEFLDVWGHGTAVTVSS
Chain of PGT-144 (4970_K22) (antibody) (VL): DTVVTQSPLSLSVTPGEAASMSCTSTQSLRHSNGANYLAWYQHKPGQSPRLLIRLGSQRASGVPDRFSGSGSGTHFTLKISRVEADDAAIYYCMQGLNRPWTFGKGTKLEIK
Chain of PGT-142 (4995_E20) (antibody) (VH): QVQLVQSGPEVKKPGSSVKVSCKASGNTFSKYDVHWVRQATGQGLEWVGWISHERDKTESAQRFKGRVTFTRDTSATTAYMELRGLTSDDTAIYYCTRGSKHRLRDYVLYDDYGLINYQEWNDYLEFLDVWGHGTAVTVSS
Chain of PGT-142 (4995_E20) (antibody) (VL): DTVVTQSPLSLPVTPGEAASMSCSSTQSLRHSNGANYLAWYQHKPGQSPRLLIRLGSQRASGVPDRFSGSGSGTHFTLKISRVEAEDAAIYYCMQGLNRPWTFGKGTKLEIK
Chain of PGT-141 (4964_G22; 4993_K13) (antibody) (VH): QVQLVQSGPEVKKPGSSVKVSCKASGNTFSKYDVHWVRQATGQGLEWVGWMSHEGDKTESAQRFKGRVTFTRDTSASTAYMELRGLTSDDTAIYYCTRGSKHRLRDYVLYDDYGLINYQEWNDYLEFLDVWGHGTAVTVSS

The IC50 is the point on the concentration scale where inhibition reaches its midpoint. For 1496_C09 (PG9) (TCN-109) (antibody), the IC50 (µg/ml), pseudovirus neutralization in [1] was 4.01 µg/mL; in experiment [3], 0.01 µg/mL; in [7], 0.64 µg/mL; in experiment [9] it was 0.22 µg/mL; in experiment [10] it was 0.16 µg/mL; in experiment [11], 0.37 µg/mL. The IC50 (µg/ml), pseudovirus neutralization in experiment [12] was determined as 0.19 µg/mL; in experiment [14] it was 0.18 µg/mL; in experiment [15], 0.32 µg/mL; in [17] it was 0.006 µg/mL. In addition, the neutralization IC50 in experiment [2] turned out to be 24.9 mg/L; in experiment [4], 0.163 mg/L; in [8], 0.0535 mg/L. The IC50 (ug/ml), neutralizing activity in experiment [5] was 0.121 µg/mL; in [16] it was 0.113 µg/mL. Moreover, the figures for the IC50 neutralization in experiment [5] and in experiment [16] were 0.121 mg/L and 0.113 mg/L, respectively. This substance also registered an IC80, neutralization in experiment [5] of 0.645 mg/L. Also, the IC90, neutralization in [5] is 1.65 mg/L. The IC95, neutralization in experiment [5] was determined as 3.71 mg/L. Moreover, the concentration for half-maximal inhibition (IC50) turned out to be 12.4 mg/L in experiment [6] and 0.006 mg/L in experiment [13]. This substance also yielded an IC50 (µg/mL), pseudovirus neutralization in experiment [18] of 0.098 µg/mL.

For 4838_L06 (PGT-121) (antibody), the IC50 (µg/mL), pseudovirus neutralization in [19] came to 1.67 µg/mL; in experiment [26] it was 0.01 µg/mL. For the same substance, the IC50, pseudovirus neutralization in [20] is 0.251 mg/L; in experiment [22], 0.195 mg/L; in experiment [23], 0.011 mg/L; in [24], greater than 50 mg/L; in experiment [27], 0.007 mg/L. The IC50 (µg/mL) neutralization was greater than 50 µg/mL in [21] and 0.011 µg/mL in [25].

For 4858_P08 (PGT-123) (antibody), the IC50 (µg/mL), pseudovirus neutralization in experiment [19] was 1.78 µg/mL; in [26] it was 0.008 µg/mL. Moreover, the IC50 (ug/ml), neutralizing activity in experiment [5] came to 0.443 µg/mL; in experiment [16], 0.0031 µg/mL. The IC50, pseudovirus neutralization in [5] was 0.443 mg/L; in experiment [20], 0.138 mg/L; in experiment [22], greater than 50 mg/L; in experiment [23], 0.015 mg/L; in experiment [16], 0.0031 mg/L; in experiment [24] it was greater than 50 mg/L. Moreover, in [27], the IC50, pseudovirus neutralization was 0.008 mg/L. In addition, the figures for the IC80, pseudovirus neutralization in experiment [5] and in experiment [16] were 2.8 mg/L and 0.0094 mg/L, respectively. Besides, the IC90 (pseudovirus neutralization) in [5] came to 7.11 mg/L; in [16], 0.0183 mg/L. Also, the IC95, pseudovirus neutralization was greater than 10 mg/L in experiment [5] and 0.0338 mg/L in experiment [16]. The same substance showed an IC50 in [28] of 0.111 mg/L. Besides, the results for the IC50 (µg/mL) neutralization in experiment [21] and in [25] were greater than 50 µg/mL and 0.009 µg/mL, respectively. Further, the Fold IC50 increase relative to wild-type in [29] is 0.8 fold; in [30], 1.1 fold; in [31], 0.5 fold.

As for 4877_D15 (PGT-122) (antibody), the IC50 (µg/mL), pseudovirus neutralization came to 1.29 µg/mL in [19] and 0.021 µg/mL in [26]. Also, the results for the IC50 (ug/ml), neutralizing activity in [5] and in experiment [16] were 2.06 µg/mL and 0.0089 µg/mL, respectively. For the same substance, the IC50, pseudovirus neutralization is 0.778 mg/L in experiment [20]; 2.31 mg/L in experiment [22]; 0.011 mg/L in experiment [23]; 5.66 mg/L in experiment [24]; 0.013 mg/L in experiment [27]. Moreover, in experiment [28], the 50% inhibitory concentration (IC50) was found to be 0.195 mg/L. The values for the IC50 (µg/mL) neutralization in experiment [21] and in experiment [25] were greater than 50 µg/mL and 0.02 µg/mL, respectively.

5123_A06 (PGT-125) (antibody): the IC50 (µg/mL), pseudovirus neutralization in experiment [19] is greater than 50 µg/mL; in experiment [26], 0.201 µg/mL. Moreover, the IC50 (ug/ml), neutralizing activity was found to be 5.78 µg/mL in experiment [5] and 0.0106 µg/mL in [16]. Also, the neutralization IC50 in [5] came to 5.78 mg/L; in [16] it was 0.0106 mg/L. Further, the neutralization IC80 in experiment [5] is greater than 10 mg/L; in experiment [16] it was 0.035 mg/L. Besides, the neutralization IC90 in [5] is greater than 10 mg/L; in experiment [16] it was 0.0705 mg/L. The neutralization IC95 in [5] is greater than 10 mg/L; in [16] it was 0.134 mg/L. Moreover, the IC50, pseudovirus neutralization in experiment [20] was 0.007 mg/L; in experiment [22], greater than 50 mg/L; in experiment [23] it was 5.47 mg/L; in [24], greater than 50 mg/L; in experiment [27], 0.008 mg/L. In experiment [28], the IC50 was greater than 50 mg/L. Also, the IC50 (µg/mL) neutralization in experiment [21] came to 0.13 µg/mL; in [25] it was 1.82 µg/mL. The Fold IC50 increase relative to wild-type in experiment [29] was determined as 1.6 fold; in experiment [30] it was 0.7 fold; in experiment [31], 1 fold.

With 5141_B17 (PGT-126) (antibody), the figures for the IC50 (µg/mL), pseudovirus neutralization in [19] and in [26] were 0.063 µg/mL and 0.046 µg/mL, respectively. Also, the IC50 (ug/ml), neutralizing activity in experiment [5] is 0.283 µg/mL; in experiment [16] it was 0.0076 µg/mL. The IC50, pseudovirus neutralization in experiment [20] was 0.012 mg/L; in [22], greater than 50 mg/L; in [23], 0.273 mg/L; in [24], greater than 50 mg/L; in experiment [27] it was 0.013 mg/L. Besides, the concentration for half-maximal inhibition (IC50) in experiment [28] was greater than 50 mg/L. In addition, the IC50 (µg/mL) neutralization worked out at 0.005 µg/mL in [21] and 0.033 µg/mL in [25]. Also, the Fold IC50 increase relative to wild-type in experiment [29] amounted to 2.7 fold; in [30] it was 0.8 fold; in experiment [31] it was 0.7 fold.

Turning to 5145_B14 (PGT-127) (antibody), the IC50 (µg/mL), pseudovirus neutralization in experiment [19] amounted to 0.068 µg/mL; in experiment [26] it was 0.067 µg/mL. Further, the IC50, pseudovirus neutralization is 0.026 mg/L in experiment [20]; greater than 50 mg/L in experiment [22]; 0.371 mg/L in experiment [23]; greater than 50 mg/L in [24]; 0.017 mg/L in experiment [27]. The concentration for half-maximal inhibition (IC50) in experiment [28] is greater than 50 mg/L. Besides, the figures for the IC50 (µg/mL) neutralization in experiment [21] and in experiment [25] were 0.017 µg/mL and 0.532 µg/mL, respectively. Besides, the figures for the Fold IC50 increase relative to wild-type in experiment [29], in experiment [30] and in [31] were 1 fold, 0.8 fold and 3 fold, respectively.

Take PGT-121 (antibody): the IC50 (µg/mL), pseudovirus neutralization in [32] turned out to be 0.014 µg/mL; in [13], 0.003 µg/mL.

As for PGT-122 (antibody), the IC50 (µg/mL), pseudovirus neutralization in [32] came to 0.036 µg/mL; in [13], 0.003 µg/mL.

The substance PGT-141 (4964_G22; 4993_K13) (antibody) came in with a neutralization IC50 in [4] of 0.051 mg/L.

Consider PGT-142 (4995_E20) (antibody), for which the neutralization IC50 in experiment [4] is 0.054 mg/L.

PGT-143 (4980_N08) (antibody) came in with a neutralization IC50 in [4] of 0.048 mg/L.

In experiment [4], PGT-144 (4970_K22) (antibody) displayed a neutralization IC50 of 7.92 mg/L.

PGV04 (antibody) yielded a neutralization IC50 in experiment [4] of 0.033 mg/L. Further, the figures for the IC50 (µg/mL), pseudovirus neutralization in experiment [28] and in experiment [18] were 0.02 µg/mL and 0.201 µg/mL, respectively. The half-maximal inhibitory concentration (IC50) in [13] stood at 0.014 mg/L.

Consider VRC01 (antibody), for which the neutralization IC50 in experiment [4] worked out at 0.025 mg/L; in [34], 0.342 mg/L; in experiment [35], 0.179 mg/L. The 50% inhibitory concentration (IC50) in [33] is 0.722 mg/L. Further, the IC50, pseudovirus neutralization came to 0.056 mg/L in [28] and 0.452 mg/L in experiment [18].
